# Measurements from IntAct's records for PubMed 24793651.
# B1: Autophagy-related protein 17 (Saccharomyces cerevisiae), Q06410 (parent)
# chain: MNEADVTKFVNNARKTLTDAQLLCSSANLRIVDIKKKLSSWQLSISKLNFLIVGLRQQGKFLYTILKEGIGTKLIQKQWNQAVLVVLVDEMKYWQYEITSKVQRLDGIVNELSISEKDDTDPSKLGDYISRDNVNLLNDKLKEVPVIERQIENIKLQYENMVRKVNKELIDTKLTDVTQKFQSKFGIDNLMETNVAEQFSRELTDLEKDLAEIMNSLTQHFDKTLLLQDKKIDNDEREELFKVVQGDDKELYNIFKTLHEVIDDVDKTILNLGQFLQAKIKEKTELHSEVSEIINDFNRNLEYLLIFKDISNLIDSFKNSCTQDIQTTKELCEFYDNFEESYGNLVLEAKRRKDVANRMKTILKDCEKQLQNLDAQDQEERQNFIAENGTYLPETIWPGKIDDFSSLYTLNYNVKNP
# partner: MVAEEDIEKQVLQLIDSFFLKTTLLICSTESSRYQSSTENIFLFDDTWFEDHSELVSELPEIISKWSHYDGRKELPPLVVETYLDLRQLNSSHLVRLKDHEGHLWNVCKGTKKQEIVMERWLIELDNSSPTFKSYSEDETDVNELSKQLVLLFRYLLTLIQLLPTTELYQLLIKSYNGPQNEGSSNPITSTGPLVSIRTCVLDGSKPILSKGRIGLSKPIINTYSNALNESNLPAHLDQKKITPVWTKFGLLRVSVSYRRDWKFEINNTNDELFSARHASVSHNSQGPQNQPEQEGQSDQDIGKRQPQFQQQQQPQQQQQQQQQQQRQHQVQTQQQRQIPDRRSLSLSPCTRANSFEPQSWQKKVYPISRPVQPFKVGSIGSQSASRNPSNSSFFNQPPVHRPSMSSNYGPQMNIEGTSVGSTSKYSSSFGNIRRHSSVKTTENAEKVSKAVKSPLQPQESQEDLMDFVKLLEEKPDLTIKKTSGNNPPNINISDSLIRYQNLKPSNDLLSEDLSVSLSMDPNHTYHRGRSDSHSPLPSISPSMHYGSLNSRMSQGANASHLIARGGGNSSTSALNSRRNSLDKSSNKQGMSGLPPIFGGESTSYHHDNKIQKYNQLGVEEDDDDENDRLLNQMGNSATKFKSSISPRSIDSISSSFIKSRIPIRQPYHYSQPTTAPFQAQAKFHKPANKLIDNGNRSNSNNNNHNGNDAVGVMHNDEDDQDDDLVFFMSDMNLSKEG
# B2: Autophagy-related protein 13 (Saccharomyces cerevisiae), Q06628 (parent)
# chain: B1 partner
# partner: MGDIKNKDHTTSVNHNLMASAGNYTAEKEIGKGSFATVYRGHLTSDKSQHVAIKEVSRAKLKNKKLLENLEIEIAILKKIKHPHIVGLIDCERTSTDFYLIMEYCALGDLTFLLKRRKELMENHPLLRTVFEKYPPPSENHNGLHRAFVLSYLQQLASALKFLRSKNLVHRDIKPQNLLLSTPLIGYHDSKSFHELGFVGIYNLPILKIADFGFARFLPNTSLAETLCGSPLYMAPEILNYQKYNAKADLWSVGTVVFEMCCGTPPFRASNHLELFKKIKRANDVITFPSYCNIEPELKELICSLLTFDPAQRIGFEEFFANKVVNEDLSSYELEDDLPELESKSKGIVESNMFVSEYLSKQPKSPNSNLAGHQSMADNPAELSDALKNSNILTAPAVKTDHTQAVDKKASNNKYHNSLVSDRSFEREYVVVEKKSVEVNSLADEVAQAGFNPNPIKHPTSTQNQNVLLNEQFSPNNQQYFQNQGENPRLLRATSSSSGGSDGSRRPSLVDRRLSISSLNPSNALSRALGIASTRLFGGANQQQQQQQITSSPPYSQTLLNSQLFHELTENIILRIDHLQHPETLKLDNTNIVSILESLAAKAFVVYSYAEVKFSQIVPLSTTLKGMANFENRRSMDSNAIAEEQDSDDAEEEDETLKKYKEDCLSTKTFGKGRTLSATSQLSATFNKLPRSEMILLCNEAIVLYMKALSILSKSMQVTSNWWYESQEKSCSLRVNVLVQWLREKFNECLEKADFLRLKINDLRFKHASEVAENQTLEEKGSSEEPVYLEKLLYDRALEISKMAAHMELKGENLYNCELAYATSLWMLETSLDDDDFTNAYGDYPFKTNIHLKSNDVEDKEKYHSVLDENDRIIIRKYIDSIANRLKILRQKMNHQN
# B3: Autophagy-related protein 13 (Saccharomyces cerevisiae), Q06628 (parent)
# chain: B1 partner
# partner: B1 chain
# Variants of: B1
# Details: with atg13_yeast ATG13, Q06628
row,Variant,effect of a mutation on the interaction
1,D247A,disrupting interaction strength
2,D247A;E250A,disrupting interaction strength
3,L240A;V243A,decreasing interaction strength
4,I213A;S216A,decreasing interaction strength

# Variants of: B2
# Details: with atg1_yeast ATG1, P53104
row,Variant,effect of a mutation on the interaction
1,F468A;L472A,disrupting interaction strength

# Variants of: B2
# Details: with atg1_yeast ATG1, P53104
# Remark: another data set of the same source
row,Variant,effect of a mutation on the interaction
1,F468A,decreasing interaction strength

# Variants of: B2
# Details: with atg1_yeast ATG1, P53104
# Remark: another data set of the same source
row,Variant,effect of a mutation on the interaction
1,F468A,disrupting interaction strength
2,L472A,disrupting interaction strength

# Variants of: B3
# Details: with atg17_yeast ATG17, Q06410
row,Variant,effect of a mutation on the interaction
1,S428A;S429A,disrupting interaction strength
2,R434A;R435A,disrupting interaction strength
3,F430A;I433A,disrupting interaction strength

# Variants of: B3
# Details: with atg17_yeast ATG17, Q06410
# Remark: another data set of the same source
row,Variant,effect of a mutation on the interaction
1,S429D,disrupting interaction strength
